The values that follow are results of earlier work, collected in article PMC8945002.

The data set has as its target BfrB (recombinant) (Pseudomonas aeruginosa) (UniProt Q9HY79). The data set is described as follows: SPR.

Sequence of BfrB (recombinant) (Pseudomonas aeruginosa) (Q9HY79 whole entry): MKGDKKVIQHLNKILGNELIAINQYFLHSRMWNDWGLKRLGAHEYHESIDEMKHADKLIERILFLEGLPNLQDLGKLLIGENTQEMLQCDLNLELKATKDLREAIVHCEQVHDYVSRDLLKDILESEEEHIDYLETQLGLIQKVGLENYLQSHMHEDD
Sequence of Bfd (Q9HY80 whole entry): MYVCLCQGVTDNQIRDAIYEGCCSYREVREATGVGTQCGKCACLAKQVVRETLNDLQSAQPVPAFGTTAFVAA

Bfd (from UniProt Q9HY80): the Kd is 3.3 µM.
